From patent US20030087827
Where two headings read alike, the source gives them in different places.

Key:
[1] = molecular target: pERTKR-MCA (pyr-Glu-Arg-Thr-Lys-Arg-methylcoumarinamide); experiment: enzyme assay, hydrolysis of fluorogenic substrate, least squares fit (EnzFitter)
Hexa-D-arginine = molecular target: T1, Hexa-D-arginine
T1 chain: RRRRRR

Nona-L-arginine [2] = molecular target: T2, Nona-L-arginine
T2 chain: RRRRRRRRR

Hexa-L-arginine = molecular target: T3, Hexa-L-arginine
T3 chain: RRRRRR

[3] = test system: pERTKR-MCA (pyr-Glu-Arg-Thr-Lys-Arg-methylcoumarinamide); experiment: enzyme assay, hydrolysis of fluorogenic substrate, least squares fit (EnzFitter); remark: listed apart in the source
Nona-L-arginine [4] = test system: T4, Nona-L-arginine; remark: listed apart in the source
T4 sequence: RRRRRRRRR

B1: recombinant truncated mouse furin (protein)
chain: DVYQEPTDPKFPQQWYLSGVTQRDLNVKEAWAQGFTGHGIVVSILDDGIEKNHPDLAGNYDPGASFDVNDQDPDPQPRYTQMNDNRHGTRCAGEVAAVANNGVCGVGVAYNARIGGVRMLDGEVTDAVEARSLGLNPNHIHIYSASWGPEDDGKTVDGPARLAEEAFFRGVSQGRGGLGSIFVWASGNGGREHDSCNCDGYTNSIYTLSISSATQFGNVPWYSEACSSTLATTYSSGNQNEKQIVTTDLRQKCTESHTGTSASAPLAAGIIALTLEANKNLTWRDMQHLVVQTSKPAHLNADDWATNGVGRKVSHSYGYGLLDAGAMVALAQNWTTVAPQRKCIVEILVEPKDIGKRLEVRKAVTACLGEPNHITRLEHVQARLTLSYNRRGDLAIHLISPMGTRSTLLAARPHDYSADGFNDWAFMTTHSWDEDPAGEWVLEIENTSEANNYGTLTKFTLVLYGTAPEGLSTPPESSGCKTLTSSQACVVCEEGYSLHQKSCVQHCPPGFIPQVLDTHYSTENDVEIIRASVCTPCHASCATCQGPAPTDCLSCPSHASLDPVEQTCSRQSQSSRESRPQQQPPALRPEVEMEPRLQAGLASHLPE
Km [1]: The Kms of PC1, PC2, furin, and PACE4 were determined as 11, 42, 8, and 15 µM, respectively | cleavage of the peptide by furin (HPLC) (Hexa-D-arginine): essentially no cleavage was observed after 24 h of incubation (results not shown) | cleavage of the peptide by furin (HPLC) (Nona-L-arginine [2]): Cleavage of nona-L-arginine (SEQ ID NO 13) was first observed ˜40 min after reaction with furin had commenced, with the appearance of hexa- and hepta-L-arginine | cleavage of the peptide by furin (HPLC) (Hexa-L-arginine): essentially no cleavage was seen after six hours incubation with furin (results not shown). After 24 hours, partial digestion of hexa-L-arginine (SEQ ID NO 14) had occurred, producing some penta-L-arginine

B2: proprotein convertase PC2 (enzyme, UniProt P16519 110-638, looked up, species assumed)
Neuroendocrine convertase 2: GYRDINEIDINMNDPLFTKQWYLINTGQADGTPGLDLNVAEAWELGYTGKGVTIGIMDDGIDYLHPDLASNYNAEASYDFSSNDPYPYPRYTDDWFNSHGTRCAGEVSAAANNNICGVGVAYNSKVAGIRMLDQPFMTDIIEASSISHMPQLIDIYSASWGPTDNGKTVDGPRELTLQAMADGVNKGRGGKGSIYVWASGDGGSYDDCNCDGYASSMWTISINSAINDGRTALYDESCSSTLASTFSNGRKRNPEAGVATTDLYGNCTLRHSGTSAAAPEAAGVFALALEANLGLTWRDMQHLTVLTSKRNQLHDEVHQWRRNGVGLEFNHLFGYGVLDAGAMVKMAKDWKTVPERFHCVGGSVQDPEKIPSTGKLVLTLTTDACEGKENFVRYLEHVQAVITVNATRRGDLNINMTSPMGTKSILLSRRPRDDDSKVGFDKWPFMTTHTWGEDARGTWTLELGFVGSAPQKGVLKEWTLMLHGTQSAPYIDQVVRDYQSKLAMSKKEELEEELDEAVERSLKSILNKN
Km [3]: The Kms of PC1, PC2, furin, and PACE4 were determined as 11, 42, 8, and 15 µM, respectively | cleavage of the peptide by PC2 (HPLC) (Nona-L-arginine [4]): essentially no cleavage was observed after 24 h of incubation (results not shown)

B3: proprotein convertase PC1 (enzyme, UniProt P29120 111-753, looked up, species assumed)
Neuroendocrine convertase 1: SALRDSALNLFNDPMWNQQWYLQDTRMTAALPKLDLHVIPVWQKGITGKGVVITVLDDGLEWNHTDIYANYDPEASYDFNDNDHDPFPRYDPTNENKHGTRCAGEIAMQANNHKCGVGVAYNSKVGGIRMLDGIVTDAIEASSIGFNPGHVDIYSASWGPNDDGKTVEGPGRLAQKAFEYGVKQGRQGKGSIFVWASGNGGRQGDNCDCDGYTDSIYTISISSASQQGLSPWYAEKCSSTLATSYSSGDYTDQRITSADLHNDCTETHTGTSASAPLAAGIFALALEANPNLTWRDMQHLVVWTSEYDPLANNPGWKKNGAGLMVNSRFGFGLLNAKALVDLADPRTWRSVPEKKECVVKDNDFEPRALKANGEVIIEIPTRACEGQENAIKSLEHVQFEATIEYSRRGDLHVTLTSAAGTSTVLLAERERDTSPNGFKNWDFMSVHTWGENPIGTWTLRITDMSGRIQNEGRIVNWKLILHGTSSQPEHMKQPRVYTSYNTVQNDRRGVEKMVDPGEEQPTQENPKENTLVSKSPSSSSVGGRRDELEEGAPSQAMLRLLQSAFSKNSPPKQSPKKSPSAKLNIPYENFYEALEKLNKPSQLKDSEDSLYNDYVDVFYNTKPYKHRDDRLLQALVDILNEEN
Km [3]: The Kms of PC1, PC2, furin, and PACE4 were determined as 11, 42, 8, and 15 µM, respectively

B4: proprotein convertase PACE4 (enzyme, UniProt P29122 150-969, looked up, species assumed)
Proprotein convertase subtilisin/kexin type 6: QVRSDPQALYFNDPIWSNMWYLHCGDKNSRCRSEMNVQAAWKRGYTGKNVVVTILDDGIERNHPDLAPNYDSYASYDVNGNDYDPSPRYDASNENKHGTRCAGEVAASANNSYCIVGIAYNAKIGGIRMLDGDVTDVVEAKSLGIRPNYIDIYSASWGPDDDGKTVDGPGRLAKQAFEYGIKKGRQGLGSIFVWASGNGGREGDYCSCDGYTNSIYTISVSSATENGYKPWYLEECASTLATTYSSGAFYERKIVTTDLRQRCTDGHTGTSVSAPMVAGIIALALEANSQLTWRDVQHLLVKTSRPAHLKASDWKVNGAGHKVSHFYGFGLVDAEALVVEAKKWTAVPSQHMCVAASDKRPRSIPLVQVLRTTALTSACAEHSDQRVVYLEHVVVRTSISHPRRGDLQIYLVSPSGTKSQLLAKRLLDLSNEGFTNWEFMTVHCWGEKAEGQWTLEIQDLPSQVRNPEKQGKLKEWSLILYGTAEHPYHTFSAHQSRSRMLELSAPELEPPKAALSPSQVEVPEDEEDYTAQSTPGSANILQTSVCHPECGDKGCDGPNADQCLNCVHFSLGSVKTSRKCVSVCPLGYFGDTAARRCRRCHKGCETCSSRAATQCLSCRRGFYHHQEMNTCVTLCPAGFYADESQKNCLKCHPSCKKCVDEPEKCTVCKEGFSLARGSCIPDCEPGTYFDSELIRCGECHHTCGTCVGPGREECIHCAKNFHFHDWKCVPACGEGFYPEEMPGLPHKVCRRCDENCLSCAGSSRNCSRCKTGFTQLGTSCITNHTCSNADETFCEMVKSNRLCERKLFIQFCCRTCLLAG
Km [3]: The Kms of PC1, PC2, furin, and PACE4 were determined as 11, 42, 8, and 15 µM, respectively
